Test results taken from article doi:10.1101/2024.02.23.581731 (bioRxiv, 2024).
“And” between values parts separate entries of the source, which are not always exact repeats. Equal entries are not always repeated. Where two headings read alike, the source gives them in different places.

Experiments:
cryo-EM structure [1] = target: the molecule itself; assay: cryo-EM structure
cryo-EM structure [2] = target: the molecule itself; assay: cryo-EM structure; remark: listed apart in the source

Row | Protein | stoichiometry N (cryo-EM structure [1]) | stoichiometry N (cryo-EM structure [2])
1 | mouse wild-type 5-HT3A receptor (receptor, UniProt P23979 24-489, looked up) SRRRATQARDTTQPALLRLSDHLLANYKKGVRPVRDWRKPTTVSIDVIMYAILNVDEKNQVLTTYIWYRQYWTDEFLQWTPEDFDNVTKLSIPTDSIWVPDILINEFVDVGKSPNIPYVYVHHRGEVQNYKPLQLVTACSLDIYNFPFDVQNCSLTFTSWLHTIQDINITLWRSPEEVRSDKSIFINQGEWELLEVFPQFKEFSIDISNSYAEMKFYVIIRRRPLFYAVSLLLPSIFLMVVDIVGFCLPPDSGERVSFKITLLLGYSVFLIIVSDTLPATAIGTPLIGVYFVVCMALLVISLAETIFIVRLVHKQDLQRPVPDWLRHLVLDRIAWILCLGEQPMAHRPPATFQANKTDDCSGSDLLPAMGNHCSHVGGPQDLEKTPRGRGSPLPPPREASLAVRGLLQELSSIRHFLEKRDEMREVARDWLRVGYVLDRLLFRIYLLAVLAYSITLVTLWSIWHYS | 5 | 
2 | human wild-type 5-HT3A receptor (receptor, UniProt P46098 24-478, looked up) RRSRNTTRPALLRLSDYLLTNYRKGVRPVRDWRKPTTVSIDVIVYAILNVDEKNQVLTTYIWYRQYWTDEFLQWNPEDFDNITKLSIPTDSIWVPDILINEFVDVGKSPNIPYVYIRHQGEVQNYKPLQVVTACSLDIYNFPFDVQNCSLTFTSWLHTIQDINISLWRLPEKVKSDRSVFMNQGEWELLGVLPYFREFSMESSNYYAEMKFYVVIRRRPLFYVVSLLLPSIFLMVMDIVGFYLPPNSGERVSFKITLLLGYSVFLIIVSDTLPATAIGTPLIGVYFVVCMALLVISLAETIFIVRLVHKQDLQQPVPAWLRHLVLERIAWLLCLREQSTSQRPPATSQATKTDDCSAMGNHCSHMGGPQDFEKSPRDRCSPPPPPREASLAVCGLLQELSSIRQFLEKRDEIREVARDWLRVGSVLDKLLFHIYLLAVLAYSITLVMLWSIWQYA |  | 5 and 4
